From the nanobody polyreactivity screen of Harvey et al. (2022) come the findings set out here.

This data set in a line: yeast display, Sf9 membrane polyspecificity reagent, FACS + sequencing; frameworks hold sequencing errors. The essentials:
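Polyreactivity labels are assigned by the sorting gate from which each nanobody was recovered. The gates were low and high (top ~1%), set on anti-HA fluorescence for expression and streptavidin fluorescence for reagent binding. Before sorting, galactose-induced (36–48 hours) yeast display cells were stained for 1 hour at 4 °C with 10% biotinylated, detergent-solubilized Sf9 membrane reagent.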
As for “QVQLVESGGGLVQAGGSLRLSCAASGSTFRVNAMGWYRQAPGKEREFVATIRGGGVRTYYADSVKGRFTISRDNAKNTVYLQMNSLKPEDTAVYYCNRKFYWRRDYWGQGTQVTVSS”, the “polyreactivity (PSR sort gate)” value is “high polyreactivity”. For “QVQLVESGGGLVQAGGSLRLSCAASGFIIGFNAMGWYRQAPGKERELVAAISGSGGRTYYADSVKGRFTISRDNAKNTVYLQMNSLKPEDTAVYYCAKVGYKSPYLYSQHYTGFGYWGQGTQVTVSS” the value was “high polyreactivity”; for “QVQLVESGGGLVQAGGSLRLSCAASGSTFAGYAMGWYRQAPGKERELVAAISKRGTSTYYADSVKGRFTISRDNAKNTVYLQMNSLKPEDTAVYYCAARTYASYFKLYYWGQGTQVTVSS”, “high polyreactivity”. Consider “QVQLVESGGGLVQAGGSLRLSCAASGSIIDYYAMGWYRPAPGKERELVAAISESSDSTYYADSVKGRFTISRDNAKNTVYLQMNSLTPEDTAVYYCAADSLTPKSASDYWGQGTQVTVSS”, for which the “polyreactivity (PSR sort gate)” value is reported as “low polyreactivity”.

With “QDQLVESGGVLVQAGGSLRLSCAASGSTFYYYAMGWYRQAPRKEREFVSSISSRRTSTYYADSVKGRLTISRDNAKNNVYLQMNSLKREDTAVYYCADTQYRSDGWRYDYWGQGTQVTVSS”, the “polyreactivity (PSR sort gate)” value was “high polyreactivity”. On to “HVQLGESGGGLVQAGGSLRLSCAASGRNFERNVMGWYRPATGKERELVAGIRSDGDRTYYADSVKGRFTISRDNSKNTVYLQLKSLKPEDTAVYYCAVVWYDKGRQTRYNYWGQGTQVTVSS”, for which the “polyreactivity (PSR sort gate)” value was “high polyreactivity”.

As for “QVQLVESGGGLVQAGGSLRLSCAASGRIIYNYAMGWYRQAPGKERELVAAITRSGGSTYYADSVKGRFTISRDNAKNTVYLQMNSLKPEDTAVYYCNATRGFGPPYFYWGQGTQVTVSS”, the “polyreactivity (PSR sort gate)” value is given as “high polyreactivity”. With “QVQLVVSGGGLVQAGGSLRLSCAASGSIFKKYAMGWYRQAPGKERELVAAITRGTYYADSVKGRFTISRDNAKNTVYLLMNSLNPEDTAVYYCNREYWVRGYYRVRGEYDYWGQGTQVTVSS” the entry was “low polyreactivity”; with “QVQLVESGGGIVQAGGSLRLTCAASGRIFRSYAMGWYRQAPGKERELVATITWSGTSTYADSVKGRFTISRDNAKNTVYLQMNSLKPEDTAVYYCAAVALFPKYRYYSWGQGTQVTVSS”, “high polyreactivity”; with “QVQLVESGGGLVQAGGSLRLSCAASGSIFHINAMGWYRQAPGKERELVAAISSADRTYYADSVKGRFTISRDNAMNTVYLQMNSLKPEDTAVYYCAAVYYRYPYEYWGQGTQVTVSS”, “high polyreactivity”. For the sequence “QVQLVESWGGLVQAGGSLRISCAASGNIFRYAMGWYRQAPGKERELVAAITYRGSTTYYADSVKGRFTISCDNAKNTVYLQMISLKPEDTAVYYCAARASYTRRHVGRPYDYWGQGTQVSVSS”, the “polyreactivity (PSR sort gate)” value is on record as “high polyreactivity”. In the case of “QVQLVESGGGLVQAGGSLRLSCAASGFTFGSYAMGWSRQAPGKERELVAVITRSGRTNYADSVKGRFTISRDNAKNTVYLQMNSLKPEDTAVYYCNADDVDDEVSPDLTEMDYWGQGTQVTVSS”, the “polyreactivity (PSR sort gate)” value is listed as “low polyreactivity”. For “QVQLVESGGGLVQAGGSLRLSCAASGFIFWYYAMGWSRQAPGKERELVAAISKSGGRTYYADSVKGRFTISRDNAKNTVYLQMNSLKPEDTAVYYCARRAYLSYGYWSDYWGQGTQVTVSS”, the “polyreactivity (PSR sort gate)” value is “high polyreactivity”. Take “QVQLVESGGGLVQAGGSLRLSCAASGLIFYRYAMGWYRQAPGKERELVAAISSGGSTYYADSVKGRFTISRDNAKNTVYLQMNSLKPEDTAVYYCADRTRVSPQIHIYRAYGYWGQGTQVTVSS”: the “polyreactivity (PSR sort gate)” value was “high polyreactivity”. On to “QVQLVESGGGLVQAGGSLRLSCAASGSLIGQNAMGWYRQAPGKERELVATISRSGARTYYADSVKGRFTISRDIAKNTVYLQMNSLKPEDTAVYYCAARLLSVGVPMYSWGQGTQVTVSS”, for which the “polyreactivity (PSR sort gate)” value was “high polyreactivity”. For “QVQLVESGGGLVQAGGSLRLSCAASGGTLRYYAMGGYRQAPGKERELVAVITSSAGRTYYADSVKGRFTISRDNAKNTVYLQMNSLKPEDTAVYYCPAYDAYSPYQALYDYWGQGTQVTVSS”, the “polyreactivity (PSR sort gate)” value was “low polyreactivity”. With “QVQLVESGVGLVQAGGSHPLSCAASGSTLRYAMGWNRQAPGKETELVAAISRTGGSTYYADSVKGRFTISRDNAKNTVYLQMNSLKPEDPAVYYCAARYFTSYPLYYYWGQGTQVTVSS”, the “polyreactivity (PSR sort gate)” value is “high polyreactivity”. Take “QVQLVESGGGLVQAGGSLRLSCAASGGIFRYYAMGWYRQAPGKERELVAAISRSGDSTYYADSVKGRFTISRDNAKNTVYLQMNSLKPEDTAVYYCAATRLYWKIFYGDGDYWGQGTQVTVSS”: the “polyreactivity (PSR sort gate)” value is on record as “high polyreactivity”. “QVQLVESGGRLVQAGGSLRLSCAASGGTFPTNAMGWYTQAPGKERELVAAITSSGVRTYYADSVKGRFTISRDNAKNTVYLQMNSLKPEDTAVYYCNAVTRYVRLTDDDYWGQGSQVTVSS”: the “polyreactivity (PSR sort gate)” value is listed as “high polyreactivity”. As for “QVQLVESGGGLVQAGGSLRLSCAASGRTFAAYAMGWYRQAPGKEREFVADITYSGGSTTYADSVKGRFTISRDNAKNTVYLQMNSLKPEDTAVYYCNKLAYTRGWRGFVWYDYWGQGTQVTVSS”, the “polyreactivity (PSR sort gate)” value was “low polyreactivity”. Regarding “QVQLVESGGGLVQAGGSLRLSCAASGLTFPENAMGWYRQAPGKEREMVASISDSDGITFYADSVKGSFTISRDNAKNTVYLQMNSLKPEDTAVYYCAADVAIAIPFSYDYWGQGSQVTVSS”, the “polyreactivity (PSR sort gate)” value is “low polyreactivity”.

With “QVQLVESGGGLVQAGGSLRLSCAASGLTFYAYAMGWYRQAPGKERELVAAISWTGGRTYYADSVKGRFTISRDNAKNTVYLQMNSLKPEDTAVYYCAAEVFTTGSFRRYDYWGQGTQVTVSS”, the “polyreactivity (PSR sort gate)” value is reported as “high polyreactivity”.

In the case of “QVQLVESGGGLVQEGGSLRLSCAASGFTIFQYAMGWYRQAPGKERELVATITSAGSTNYADSVKGRFTISLDNAKNTVYLQMNSLIPEDTAVYYCNTKKLPYAEGYWGQGTQVSVSS”, the “polyreactivity (PSR sort gate)” value is given as “low polyreactivity”. For “QVQLVESGGGLVQAGGSLRLSCAASGSIFGKNAMGWYRQARGKERELVAAITWSGGSTYYADSVKGRFTISRENAKNTVYLQMNSLKPEDTAVYYCNAVRVRVTSHRIRQLDFGYWGQGTQVTVSS”, the “polyreactivity (PSR sort gate)” value is reported as “low polyreactivity”.

On to “QVQLVESGGGLVQAGGSLRLSCAASGNTFWGNAMGWYRQAPGKERELVATISASSGSTYYADSVKGRFTISRDNAKNTVYLQMNSLKPEDTAVYYCAKTALRYLKHGRTKGDYWGQGTQVTVSS”, for which the “polyreactivity (PSR sort gate)” value is reported as “low polyreactivity”. On to “QVQLVESGGGLVQAGGSLRLSSADSGRTFWDNTMGWYRQAPGKERELVAAISGGDSTYYADSVKGRFTISRDNAKNTVYLQMNSLKPEDTAVYYCAAAYATPTLYYYWGQGTQVTVSS”, for which the “polyreactivity (PSR sort gate)” value is on record as “low polyreactivity”.

In the case of “QVQLVESGGGLVQAGGSLRLSCAASGFTFYYYTMGWYRQAPGKERELVAGISGTGGSTYYADSVKGRFTISRDNAKNTVYLQMNSLKPEDTAVYYCAAGPWYWGQGTQVTVSS”, the “polyreactivity (PSR sort gate)” value is recorded as “low polyreactivity”.

With “QVQLVESGGGLVQAGGSLRLSCAASGRTFPGYAMGCYRQAPGKERELVATITFSDGSTYYADSVKGRFTISRDNAKITVYLQMNSLKPEDTAVYYCNARRSYFLRYGVNYWGQGTQVTVST”, the “polyreactivity (PSR sort gate)” value is on record as “low polyreactivity”. Take “QVQHVESGRGLVQAGGSLRLSCSASVRIFYNYAMGWYRQAPGKERELVAAISGSGGSTYYADSVKGRFTISRDNAKNSVYLQMNSQKPEDTAVYYCNKAVRRYPRFDYWGQGTQVTVSS”: the “polyreactivity (PSR sort gate)” value was “low polyreactivity”. As to “QVQLVESGGGLVQAGGSLRLSCAASGRIFPIYAMGWYRQAPGKERELVATIRYSSGTTYYADSVKGRFTISRDNAKNTVYLQMNSLKPEDTAVYYCAADSQWAYISEYDYWGQGTQVTVSS”, the “polyreactivity (PSR sort gate)” value was “low polyreactivity”.
